The source of these data is patent US20220281982A1.

The target in this assay is NKG2D (human) (UniProt P26718). Put plainly: cell-based or functional assay.
Chain of UniProt P26718 (P26718 whole entry): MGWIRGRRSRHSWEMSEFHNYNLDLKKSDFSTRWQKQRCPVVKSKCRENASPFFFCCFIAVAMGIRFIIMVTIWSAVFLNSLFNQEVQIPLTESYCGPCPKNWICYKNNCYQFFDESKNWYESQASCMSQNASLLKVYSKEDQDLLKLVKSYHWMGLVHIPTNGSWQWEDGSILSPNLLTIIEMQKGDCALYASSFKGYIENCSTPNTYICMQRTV

B1: anti-NKG2D-anti-CS1 bispecific antibody (bispecific antibody, part only; not given: anti-CS1 scFv and linkers, part only)
chain, part: QVQLVESGGGLVKPGGSLRLSCAASGFTFSSYGMHWVRQAPGKGLEWVAFIRYDGSNKYYADSVKGRFTISRDNSKNTLYLQMNSLRAEDTAVYYCAKDRGLGDGTYFDYWGQGTTVTVSSQSALTQPASVSGSPGQSITISCSGSSSNIGNNAVNWYQQLPGKAPKLLIYYDDLLPSGVSDRFSGSKSGTSAFLAISGLQSEDEADYYCAAWDDSLNGPVFGGGTKLTVLPSGQAGAAASESLFVSNHAYHHHHHH
The molecule B1 yielded a Ki67 expression of T cells cultured without IL-2 of 80%.
